Here are results for four substances from article PMC6264593.

Where only a bound is given, the exact number is not on record here.

Broadly, the Kd is the free concentration of one partner at which half of the binding sites on the other are occupied at equilibrium, for simple one-to-one binding. Read a high Kd as lower affinity.

Some targets named below: hFcγRIIb (human) (UniProt P31994); hFcγRIIIa (human) (UniProt P08637); hFcγRI (human) (UniProt P12314); hFcγRIIa (human) (UniProt P12318); mFcγRIIb (mouse) (UniProt P08101); mFcγRIII (mouse) (UniProt P08508); mFcγRIV (mouse).
Holding throughout (assay): SPR; Fcγ receptor affinities (KD) by Surface Plasma Resonance; mAb up to 6.4 µM
(In SPR one partner is held on a chip, and binding of the other changes the refractive index at the surface.)

hFcγRIIa (human), sequence (P12318 34-317): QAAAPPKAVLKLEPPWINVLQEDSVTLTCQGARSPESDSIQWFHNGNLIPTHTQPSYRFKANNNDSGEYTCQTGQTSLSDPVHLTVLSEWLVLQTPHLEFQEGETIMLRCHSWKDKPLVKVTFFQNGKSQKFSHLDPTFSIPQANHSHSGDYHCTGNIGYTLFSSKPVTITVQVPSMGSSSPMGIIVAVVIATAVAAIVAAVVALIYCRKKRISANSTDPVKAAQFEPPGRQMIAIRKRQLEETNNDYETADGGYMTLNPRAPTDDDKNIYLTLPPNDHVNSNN
hFcγRI (human), sequence (P12314 16-374): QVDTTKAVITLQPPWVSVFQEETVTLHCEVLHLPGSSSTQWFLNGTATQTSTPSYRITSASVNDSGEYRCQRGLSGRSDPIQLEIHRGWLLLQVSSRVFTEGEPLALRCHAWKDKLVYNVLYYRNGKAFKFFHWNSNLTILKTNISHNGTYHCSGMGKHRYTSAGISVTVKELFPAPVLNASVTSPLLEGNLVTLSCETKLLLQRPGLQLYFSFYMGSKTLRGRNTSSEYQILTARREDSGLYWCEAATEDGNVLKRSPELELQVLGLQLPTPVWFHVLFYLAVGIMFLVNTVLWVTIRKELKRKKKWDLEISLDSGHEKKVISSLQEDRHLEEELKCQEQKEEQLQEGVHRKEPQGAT
mFcγRIIb (mouse), sequence (P08101 30-330): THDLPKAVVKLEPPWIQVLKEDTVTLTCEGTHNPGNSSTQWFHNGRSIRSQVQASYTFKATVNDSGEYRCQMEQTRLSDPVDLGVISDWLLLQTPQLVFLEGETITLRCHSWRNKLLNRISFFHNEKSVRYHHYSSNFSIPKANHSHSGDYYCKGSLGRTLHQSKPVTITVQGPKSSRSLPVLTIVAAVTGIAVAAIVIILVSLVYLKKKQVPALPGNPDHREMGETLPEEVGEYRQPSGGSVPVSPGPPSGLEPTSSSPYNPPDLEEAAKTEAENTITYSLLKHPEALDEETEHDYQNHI
hFcγRIIb (human), sequence (P31994 43-310): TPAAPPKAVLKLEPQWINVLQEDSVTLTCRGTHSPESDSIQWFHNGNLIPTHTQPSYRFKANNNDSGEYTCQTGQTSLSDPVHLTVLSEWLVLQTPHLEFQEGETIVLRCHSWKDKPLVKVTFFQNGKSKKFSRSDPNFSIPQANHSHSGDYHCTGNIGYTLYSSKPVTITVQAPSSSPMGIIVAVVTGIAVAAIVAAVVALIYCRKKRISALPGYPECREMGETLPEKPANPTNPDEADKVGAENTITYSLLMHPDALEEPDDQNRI
mFcγRIV (mouse), sequence (A0A0B4J1G0 21-249): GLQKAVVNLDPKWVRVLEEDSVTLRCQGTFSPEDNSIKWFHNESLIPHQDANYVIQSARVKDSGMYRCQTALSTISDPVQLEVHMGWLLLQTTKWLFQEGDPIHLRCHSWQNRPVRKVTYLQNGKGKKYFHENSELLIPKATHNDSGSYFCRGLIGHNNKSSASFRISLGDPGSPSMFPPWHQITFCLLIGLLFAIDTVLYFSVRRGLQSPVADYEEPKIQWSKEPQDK
hFcγRIIIa (human), sequence (P08637 17-254): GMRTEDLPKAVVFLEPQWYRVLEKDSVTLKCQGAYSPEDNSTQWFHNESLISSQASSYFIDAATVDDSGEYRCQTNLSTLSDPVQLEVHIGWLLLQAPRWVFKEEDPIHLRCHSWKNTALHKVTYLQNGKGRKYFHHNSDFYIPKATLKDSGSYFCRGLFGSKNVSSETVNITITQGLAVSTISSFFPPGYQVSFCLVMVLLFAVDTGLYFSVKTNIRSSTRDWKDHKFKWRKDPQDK
mFcγRIII (mouse), sequence (P08508 31-261): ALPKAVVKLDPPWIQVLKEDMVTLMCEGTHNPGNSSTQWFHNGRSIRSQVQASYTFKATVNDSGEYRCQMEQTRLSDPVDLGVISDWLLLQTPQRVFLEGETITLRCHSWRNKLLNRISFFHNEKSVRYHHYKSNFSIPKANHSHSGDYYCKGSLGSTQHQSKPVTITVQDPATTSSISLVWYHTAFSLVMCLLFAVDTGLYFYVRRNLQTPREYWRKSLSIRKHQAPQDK

As for 3D6-huIgG1 (antibody), the Kd in the assay with hFcγRIIb (human) is 2060 nM; with hFcγRIIIa (human), 472 nM; with hFcγRI (human) it was 0.86 nM; in the assay with hFcγRIIa (human) it was 794 nM.
Take SAR255952 (antibody): in the assay with mFcγRIIb (mouse), the Kd is more than 4500 nM.
SAR228810 (antibody): the Kd with hFcγRIIb (human) was 1830 nM; with hFcγRI (human) it was 244 nM; with hFcγRIIa (human), 2640 nM.
On to 3D6mIgG2b (antibody), for which the Kd in the assay with mFcγRIII (mouse) is 119 nM; in the assay with mFcγRIIb (mouse) it was 456 nM; in the assay with mFcγRIV (mouse), 22 nM.
